tested on: K4 kissing-loop RNA reporter; test: apparent KD of K4 kissing-loop reporter; higher = weaker reporter binding; conditions: Eterna round: R107; input ligand: FMN 200 uM
Protocol: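 RNA-MaP round R107: designed RNA switches with theophylline, tryptophan, arginine or FMN aptamers are transcribed on-chip within common flanks. They are titrated with a labelled K4 kissing-loop RNA reporter in RNA-MaP buffer (100 mM Tris pH 7.5, 80 mM KCl, 4 mM MgCl2), without ligand or with the indicated ligand. Median apparent KD per design.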
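Note: bound reporter read as fluorescence of individual clusters on recovered sequencing chips by microscopy, with normalized cluster intensities fitted with a binding model.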

“GUGAAGGAGCUGCAGUGAUGUUGCAGAGACUAGGAUAUCAGGAAACUGAGAAGGAGUCAACUCCUUCACCUAGACAACAUCACUA [[F]''-[K1]-[K2]-[F1]-[F2]-[F2]'-[F1]'-[K]'_Design2]” and “GCUAUGGUAGGAAGGAGCGCUUACUCGUUAAUAAGAGUGAUGUUCGAUAACGAGUAUUUAUAGCAGGUAGGUCGCCUACUAUAGC [Arginine B K4 4]” are within 1.5-fold of each other in “apparent KD of K4 kissing-loop reporter” value: 148 nM for the first, 207 nM for the second.

“ACGUAGUUCUAGGAUACCAGCCAAGGUCGCCAGGACAAAAGUCCUGGCGCCAGUGAUGUUGGCCCUUGGCAGCCUAGAACUACGA [Omei KL Theo B Exc B v6]” and “GUCCAUGUCCUCAUUCGUGCACUGGACACCAAGGAUAUGUUUAUGGACAGAAGGUGGUUGGGUCAGUGAUGUUGAUAUAAUUAGU [theeternabot_exclusion_KL_FMN_A_24]” are within 1.5-fold of each other in “apparent KD of K4 kissing-loop reporter” value: 195 nM for the first, 208 nM for the second.

First: UAUACACAGGGAGGAUAUGCCCACACAACAACCGAGUGAUGUUCGGACAAUACACAUAAUACACGGGCAGAAGGCCCACAUCACA [SS FNM B Tesla 1]
Second: AAUAAGUGUCAGCGAGUGAUGUUCGACGAUACCAGACUCGAUAGAGUCCCUUGGCAGCGUAACGCAUGCCAAACUGGCACAAUAA [#SwitchBubble 8 #K4Early]
The “apparent KD of K4 kissing-loop reporter” value of the first is 3.1-fold lower: 143 nM for the first, 444 nM for the second.

Going from “GGAGGAGAAUAUGAUACCAGCAGAGAGAGAGAGGAAGUAUAGUGAUGUUAUAUGUGAGAAUGCCCUUGGCAGCAUAACAUGAAGG [whbob_SS_Theo_B_sa90]” to “GGCCGGAAGGCGAGCGCUCCCACUCCGGAAGGAGCGCCCGUAAGGGCAGGUAGGUCGCCGGAGUGAUGUUCCGGUGGAGGGCUCG [#2 Exclusion - Arginine A Attempt #21 (Inspired by Omei)]”, the “apparent KD of K4 kissing-loop reporter” value falls from 288 nM to 165 nM (1.7-fold).

First: AGUGUGCAAAAGCACACUCAGUACAAGGACAAGGAUAUCUACUAAUAGAGAAGGUGUCCUUUCCUUAGUGAUGUUAAGGAACUGA [Omei KL FMN A SS D v3]
Second: AAAGAUCUUCUAGAAACUAGAAGAUCAAGAGAGGAUAUCCGAAUUCGGAGAAGGCUCACUAAGUGAUGUUUGGAGGGAAUCCCAA [AK1 SS FMN A]
The “apparent KD of K4 kissing-loop reporter” value of the first is 6.1-fold lower: 205 nM for the first, 1250 nM for the second.

Going from “AGAGUUAAUUAGUCAUUUUUCACAUUAAGUCAGGAUAUCGUAUUUUCGAGAAGGGACACAUGCUAGUGAUGUUAGCUAUUUCUCA [JR_Nu_ExcFMNA_Sub021]” to “CCAGGACGAUGAGGAUGAUGAAUUACUGAAGGAGCGCAUAUGGUUGCAGGUAGGUCGCGGUGAACAAGUAUAGUGAUGUUAUGCC [SSArgA.V]”, the “apparent KD of K4 kissing-loop reporter” value rises from 63.6 nM to 704 nM (11-fold).

Compared with “UGGGUUGGAAGUGAUGUUUCUCUAAGUGAUACCAGACAAAAGAAAGUCCCUUGGCAGCACAAUGAUGCCAAGGAAACGGCAUGAU [#16 K4 Theophylline A Same State]”, “AAGGUCACCACUACAGUGAUGUUGUGGGAGCAGGAUAUGCAGAAAUGCAGAAGGGCUCGCUCCCGGUGACCGAAUGAAACAUUCA [Omei KL FMN A SS A v5]” is 6-fold higher in “apparent KD of K4 kissing-loop reporter” value: 229 nM for the first, 1380 nM for the second.

Going from “ACGUCAUAUGUAAUGGUGGUUUCGAUCGAUACCAGUAGCGAGAGUUACCCUUGGCAGCGACAUGAGUGAUGUUCAUGUAUGAAGA [KL-XTheo-A2 #analogue]” to “UAAGGGUUAUGUCCUCGGUGCGAAGAGCUCCGAGGACCGGUACGGCCGCCACUCGGAAGUUCUGAGUGAGGGAGUGAUGUUCCCU [Skye_Ex_TA]”, the “apparent KD of K4 kissing-loop reporter” value rises from 116 nM to 312 nM (2.7-fold).

“CUUGAUGUGUCGGCCGCCACUGGUAUAGGCGGACUAUAACGACAUGAGUGAUGUUCAUGUUCGUCUAGGACCGGGACACAUUGUA [Tryp B SS t4]” was tested, and the “apparent KD of K4 kissing-loop reporter” value was 112 nM.

same assay, conditions: Eterna round: R107; input ligand: arginine 13.2 mM

Going from “UUAUAUUUUAUAUUUAGAUGAUCUAUAGCACGAGGACCGGUACGGCCGCCACUCGAGUGAUGUUCGAGAGCUAUAGAUCAUCAUU [AK2.2 EXC Tryptophan A]” to “CCUGGCGAGGUAACGUGGAUAUCUCGUCGCAAGGAUAUCUGGAAACAGAGAAGGUGCUACAUUACCGGCAGUGAUGUUGCUGACC”, the “apparent KD of K4 kissing-loop reporter” value rises from 132 nM to 336 nM (2.5-fold).

Compared with “AAAUAAAUGGCGGCCGCCACUGAACGCCUCCGCGUGGGUAUAUAGUGAUGUUAUAUGGCCGCCAUCAGGACCGGGCCAAAUAAAA [#08 K4 Tryptophan B Same State]”, “AAGGUCACUACUACAGUGAUGUUGUAGGAGCAGGAUAUGCAGAAAUGCAGAAGGGCUCGCUCCAAGUGACCGAAUGAAACAUUCA [Omei KL FMN A SS A v2]” is 1.7-fold higher in “apparent KD of K4 kissing-loop reporter” value: 259 nM for the first, 430 nM for the second.

Going from “CAUCUCAUGAAAUGAGAUGUCAUCAGUGAAGGAGCGCUAUUAGCAGCAGGUAGGUCGCACUGAAGCGGAGUGAUGUUCUGUAUGA [Arg A SS t3]” to “CGCAGUGAUGUUGCGAGUAGCUACAGGGAAGGAGCGCUUUAGUAAGCAGGUAGGUCGCCCACGCAGUGAUGUUGCGUCAUAGGGU [Exclusion Arginine A GF 19]”, the “apparent KD of K4 kissing-loop reporter” value falls from 220 nM to 106 nM (2.1-fold).

Compared with “CGCUGGGCGAGUGAUGUUCGCUCACGUGAUACCAGUGCCAUCCAACACCCUUGGCAGCACGCGGGCAGUGAUGUUGUCCUUAGUG [Exclusion Theophylline A GF8]”, “UUUCGUUGAAGUGAUACCAGACUUGAAAGUGAUGUUUUCCAAUAAAUUAAAUUAUUAGCUGUCCCUUGGCAGCACAGUUUAUUUA [JR_ExcTheophyB_Sub006]” is 2.8-fold higher in “apparent KD of K4 kissing-loop reporter” value: 123 nM for the first, 345 nM for the second.

Going from “UAACUGCAGUGAUGUUGCAGAUGUCCUGACUAGGAUAUCAGGAAACUGAGAAGGAGUCCCUUCUAAACAUCACAGAAGGAGGACA [[K1]-[K2]-[F1]'-[F1]-[F2]-[F2]'-[K]'-[F]''_Design2]” to “GGUCGAGUGAUGUUCGAUGUAGUGCAUUCAGAGGAUAUAGGAUUGGCUAGAAGGCUGAAACCUUCUUCGAGUGAUGUUCGAGGAU [Same State FMN A GF5]”, the “apparent KD of K4 kissing-loop reporter” value falls from 415 nM to 83.8 nM (5-fold).

From the supplement of paper PMC9170038
